The experiment concerns the target Ku70/Ku80ΔC heterodimer, P12956;P13010. The experiment can be described thus: fluorescence polarisation. The following applies: read at the highest Ku concentration, about 14 µM KuΔC; 100 nM fluorescein-labeled peptide; room temperature; 20 mM HEPES pH 7.5, 200 mM NaCl, 0.5 mM TCEP; parent: est. 190; read off a plot.

Regarding “fluorescein-labelled WRN-nA peptide (N-terminal KBM of WRN) W18A”, the response came to 19 millidegrees.

The record behind these values is publication PMC4831024.
